# Experimental data published in the DeepSol protein solubility set.
# Test: soluble on expression in E. coli; label from the status in PepcDB or PDB records
row,Sequence,soluble on expression in E. coli
1,MKLQKQLLEAVEHKQLRPLDVQFALTVAGDEHPAVTLAAALLSHDAGEGHVCLPLSRLENNEASHPLLATCVSEIGELQNWEECLLASQAVSRGDEPTPMILCGDRLYLNRMWCNERTVARFFNEVNHAIEVDEALLAQTLDKLFPVSDEINWQKVAAAVALTRRISVISGGPGTGKTTTVAKLLAALIQMADGERCRIRLAAPTGKAAARLTESLGKALRQLPLTDEQKKRIPEDASTLHRLLGAQPGSQRLRHHAGNPLHLDVLVVDEASMIDLPMMSRLIDALPDHARVIFLGDRDQLASVEAGAVLGDICAYANAGFTAERARQLSRLTGTHVPAGTGTEAASLRDSLCLLQKSYRFGSDSGIGQLAAAINRGDKTAVKTVFQQDFTDIEKRLLQSGEDYIAMLEEALAGYGRYLDLLQARAEPDLIIQAFNEYQLLCALREGPFGVAGLNERIEQFMQQKRKIHRHPHSRWYEGRPVMIARNDSALGLFNGDIGIALDRGQGTRVWFAMPDGNIKSVQPSRLPEHETTWAMTVHKSQGSEFDHAALILPSQRTPVVTRELVYTAVTRARRRLSLYADERILSAAIATRTERRSGLAALFSSRE,soluble
2,MKLRASVLIGATILCLILSACSNYAKKVVKQKNHVYTPVYNELIEKYSEIPLNDKLKDTPFMVQVKLPNYKDYLLDNKQVVLTFKLVHHSKKITLIGDANKILQYKNYFQANGARSDIDFYLQPTLNQKGVVMIASNYNDNPNSKEKPQTFDVLQGSQPMLGANTKNLHGYDVSGANNKQVINEVAREKAQLEKINQYYKTLLQDKEQEYTTRKNNQREILETLSNRAGYQMRQNVISSEIFKNGNLNMQAKEEEVREKLQEERENEYLRNQIRSLLSGK,not soluble
3,MKLSCVIVSHNMKNYIGRCIDSVRTALADIRSLVGEAEIIVVDRGSTDGTANAARTAYADVTIVDVPFDAGWATAANKGACAATGETLLFVSPEVELLSGGLPRLLEHLETNPACAIAGGAVVSTSGALLHGPARFPGLLGKLAALTGLGSRFPRTMLDWTRYGGRNLDLPLEVDSVSFDYAVVKAAAFCKLGRFDARFHTAFADTDLCRRASRTMLPRPTVAFVPQARARAQDNFVLRDEVQAFDLHGTAVVRGRVRCEMLYVWKNYCILTSLANTTLELVGQACRYAMGLLPVIGCDKTARHSAAVLKETAQAALDTQLGSQYPTTPWLEHHHHHH,not soluble
4,MKLSQLGFFCAVVERGTIAAAAEQLHCVPSNITTRLRELEGQLGVALFNRERNRLLVTPEGRLLYRHATRLLALADETAALFAGDQAHGALRVGALDVALANHLPQRLARYRRESPGVELHIRPEHSLLLERLLMEGELDLIVTDGPIEHPLLASRLAFRERLLRVTPADLPAPTPEDLAGLELYVFGHTCHYRRQVDRWLAESAIQPRATLEIESYPSLFACIEAGLGFACVPESFVARRPSTRRGFHAEPVAGLDSSDIHFVWRKQQASPLIQGFIDSIGAD,not soluble
5,MKLTLAIPSLNLDEDEIRIPLCLHAFNKILQYGSLHRQSCTASAFYARYLWCGRLVERAAQSLNMPSEAVALATPVWQKMGMHQANVLTAEYLNVGTDEAERICRDLSAFYGDIPWRFVPVLPELWLVSLPCAYRWGAKPVLDLGGLLGADDQPDGEDALEWLRVQTEIQMWLAAHPVNHNRKKRGLPELNGLWLWDGTNGGAQGGTLFADTVWSRFHSDRRALPDNFRAYEETAAHLPDTHHILFMDDLRLTALTGDRERYAAILQQWEERWFAPIYEAVRTGKIKRLDITTDGQHGGTLTFKPADRWKFWRGAKTFDGIW,not soluble
6,MKLVLFDCDGTLVDSAGLIHAVMSETFADFGKPRPDISETKAIIGLTLDIAIARMLGRAHVDDEAAAMALRYKENYHPLRERFENATPLFDGIASLIDMLSKRDDVLIGAVTGKGRRGLTQILETHGFADHFIVSRTADDCPSKPHPAMVMECCHETGMVPADTIVIGDAIYDMQMAKAAGAKAIGVAWGYASVEDLWKAGADAVVNHPNDIPAYVPADITE,not soluble
7,MKLVNVTNSYKQLVNKQLENTDAYFVKVYSAGNTTAVYSEAAHHVEVLIMNKNRRIRPTEVKEILAKLLKRLPKEAYDPDEISIIELNHVTEVSVPLKVSLMEN,not soluble
8,MKLWAIYFEPEDWVGFRETRRFSFSDRVESVFPSSFPFYGAVRTALLMKNQKFDPGDVERAGDVRMFGPFVFENTPEGRKHYFPLPRNIYKTDSGYRVTPIVEIDGVYLPWKPEYKMDSKESTSGGLIELSDLELLRSNTQGVCKFDLVSAEKIFKKETHIGVAFEENRKKVKERMIYSISYYRFYDGGFFMFTDDERTVELVSKLDGVFLGMKSKWSAVEVEELNTTAFDPPDYKNVAVALITPAVFDGGGMPKDKTILGKRVLTTAGIRKQVVSGWDLRENKPKKIYHAVSPGAVYYLEGKVNGHVLNESKFTDFGFGRCIFMKYEKL,soluble
